Results: US20110195900A1, “PEPTIDIC PTH RECEPTOR AGONISTS” (FERRING B.V., priority 2008, published 2011)
Non-standard residues stand in square brackets, D forms with d. No end group written: not given here. 1Nal = N[C@@H](Cc1cccc2ccccc12)C(=O)O; β3hI = CC[C@H](C)[C@H](N)CC(=O)O; Nle = CCCC[C@H](N)C(=O)O; βAla = NCCC(=O)O

B1: [Nle^8,18, β-Ala^19, 1-Nal^23, Leu^27] hPTH-(1-34)-NH2 (peptide)
peptide: SVSEIQL[Nle]HNLGKHLNS[Nle][βAla]RVE[1Nal]LRKLLQDVHNF-NH2
modifications: N-terminus assumed
SMILES: CCCC[C@H](NC(=O)[C@H](CO)NC(=O)[C@H](CC(N)=O)NC(=O)[C@H](CC(C)C)NC(=O)[C@H](Cc1c[nH]cn1)NC(=O)[C@H](CCCCN)NC(=O)CNC(=O)[C@H](CC(C)C)NC(=O)[C@H](CC(N)=O)NC(=O)[C@H](Cc1c[nH]cn1)NC(=O)[C@H](CCCC)NC(=O)[C@H](CC(C)C)NC(=O)[C@H](CCC(N)=O)NC(=O)[C@@H](NC(=O)[C@H](CCC(=O)O)NC(=O)[C@H](CO)NC(=O)[C@@H](NC(=O)[C@@H](N)CO)C(C)C)[C@@H](C)CC)C(=O)NCCC(=O)N[C@@H](CCCNC(=N)N)C(=O)N[C@H](C(=O)N[C@@H](CCC(=O)O)C(=O)N[C@@H](Cc1cccc2ccccc12)C(=O)N[C@@H](CC(C)C)C(=O)N[C@@H](CCCNC(=N)N)C(=O)N[C@@H](CCCCN)C(=O)N[C@@H](CC(C)C)C(=O)N[C@@H](CC(C)C)C(=O)N[C@@H](CCC(N)=O)C(=O)N[C@@H](CC(=O)O)C(=O)N[C@H](C(=O)N[C@@H](Cc1c[nH]cn1)C(=O)N[C@@H](CC(N)=O)C(=O)N[C@@H](Cc1ccccc1)C(N)=O)C(C)C)C(C)C
B2: [Nle^8, β-hIle^18, 1-Nal^23] hPTH (1-34)-OH (peptide)
peptide: SVSEIQL[Nle]HNLGKHLNS[β3hI]ERVE[1Nal]LRKKLQDVHNF-OH
modifications: N-terminus assumed
SMILES: CCCC[C@H](NC(=O)[C@H](CC(C)C)NC(=O)[C@H](CCC(N)=O)NC(=O)[C@@H](NC(=O)[C@H](CCC(=O)O)NC(=O)[C@H](CO)NC(=O)[C@@H](NC(=O)[C@@H](N)CO)C(C)C)[C@@H](C)CC)C(=O)N[C@@H](Cc1c[nH]cn1)C(=O)N[C@@H](CC(N)=O)C(=O)N[C@@H](CC(C)C)C(=O)NCC(=O)N[C@@H](CCCCN)C(=O)N[C@@H](Cc1c[nH]cn1)C(=O)N[C@@H](CC(C)C)C(=O)N[C@@H](CC(N)=O)C(=O)N[C@@H](CO)C(=O)N[C@H](CC(=O)N[C@@H](CCC(=O)O)C(=O)N[C@@H](CCCNC(=N)N)C(=O)N[C@H](C(=O)N[C@@H](CCC(=O)O)C(=O)N[C@@H](Cc1cccc2ccccc12)C(=O)N[C@@H](CC(C)C)C(=O)N[C@@H](CCCNC(=N)N)C(=O)N[C@@H](CCCCN)C(=O)N[C@@H](CCCCN)C(=O)N[C@@H](CC(C)C)C(=O)N[C@@H](CCC(N)=O)C(=O)N[C@@H](CC(=O)O)C(=O)N[C@H](C(=O)N[C@@H](Cc1c[nH]cn1)C(=O)N[C@@H](CC(N)=O)C(=O)N[C@@H](Cc1ccccc1)C(=O)O)C(C)C)C(C)C)[C@@H](C)CC

Legend:
[1] = biological target: human parathyroid hormone receptor 2 (human, UniProt P49190); experiment: cell-based or functional assay
[2] = biological target: human parathyroid hormone receptor 1 (human, UniProt Q03431); experiment: cell-based or functional assay

Binder	hPTHR-2 EC50 (nM), luciferase reporter gene assay [1]	hPTHR-1 EC50 (nM), CRE-luciferase reporter gene assay [2]
SVSEIQL[Nle]HNLGKHLNS[β3hI]ERVE[1Nal]LRKLLQDV-OH [[Nle^8, β-hIle^18, 1-Nal^23, Leu^27] hPTH (1-31)-OH]	76 nM	0.09 nM
B1	18 nM	0.26 nM
B2	26 nM	0.21 nM
SVSEIQL[Nle]HNLGKHLNS[β3hI]ERVE[1Nal]LRKLLQDVHNF-OH [[Nle^8, β-hIle^18, 1-Nal^23, Leu^27] hPTH (1-34)-OH]	23 nM	0.14 nM
